Measured values reported in the supplement of paper PMC7125110.
± gives the standard error. For part of these data: This sample holds only a part of the variants without activity.

B1: glmS ribozyme (parent)
chain: AUAAAAGCGCCAGAACUACAGAAAUGUAGUUGACGAGGAGGAGGUUUAUCGAAUUUUCGGCGGAUGCCUCCAAA

What was measured:
Conditions in all cases: with glucosamine-6-phosphate
[1] = variants of: B1; assay: kcat; higher = faster cleavage; RNA array
Procedure, shortened: (§1)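 E. coli RNA polymerase transcribed barcoded ribozyme variants in situ on sequenced MiSeq chips, which were tracked via a hybridised Cy3 probe at 37 °C. Tiles were imaged over ~14 h after glucosamine-6-phosphate (40 μM to 10 mM) in HEPES/KCl/Mg(OAc)2 buffer was flowed in. Normalised per-tile medians were fit to one- or two-exponential decays for kobs, and kcat and KM came from weighted Michaelis–Menten fits.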

[2] = variants of: B1; assay: self-cleavage kobs at 2500 uM GlcN6P; higher = faster cleavage; RNA array
Procedure, shortened: as §1

[3] = variants of: B1; assay: self-cleavage kobs at 10000 uM GlcN6P; higher = faster cleavage; RNA array
Procedure, shortened: as §1

[4] = variants of: B1; assay: self-cleavage kobs at 40 uM GlcN6P; higher = faster cleavage; RNA array
Procedure, shortened: as §1

[5] = variants of: B1; assay: self-cleavage kobs at 160 uM GlcN6P; higher = faster cleavage; RNA array
Procedure, shortened: as §1

[6] = variants of: B1; assay: self-cleavage kobs at 640 uM GlcN6P; higher = faster cleavage; RNA array
Procedure, shortened: as §1

[7] = variants of: B1; assay: KM; higher = weaker cofactor use; RNA array
Procedure, shortened: as §1

Row | Variant | kcat [1] | self-cleavage kobs at 2500 uM GlcN6P [2] | self-cleavage kobs at 10000 uM GlcN6P [3] | self-cleavage kobs at 40 uM GlcN6P [4] | self-cleavage kobs at 160 uM GlcN6P [5] | self-cleavage kobs at 640 uM GlcN6P [6] | KM [7]
1 | A48U U55A U56C | 4.34e-05 ± 3.5e-06 s⁻¹ | 3.8e-05 ± 1.3e-05 s⁻¹ | 4.04e-05 ± 1e-05 s⁻¹ |  |  |  | 
2 | C10A G51U | < 1e-05 s⁻¹ |  | < 1e-05 s⁻¹ | < 1e-05 s⁻¹ |  |  | 
3 | G29C G32U A33U C50G U56G G66C U69C | 1.64e-05 ± 5.6e-06 s⁻¹ |  |  |  |  |  | 
4 | C8G C10A | < 1e-05 s⁻¹ | < 1e-05 s⁻¹ | < 1e-05 s⁻¹ | < 1e-05 s⁻¹ | < 1e-05 s⁻¹ | < 1e-05 s⁻¹ | 
5 | G60C C70U | < 1e-05 s⁻¹ |  |  |  | < 1e-05 s⁻¹ |  | 
6 | A6G U45A | 0.000591 ± 0.00015 s⁻¹ | 0.000454 ± 0.00011 s⁻¹ | 0.000455 ± 8.7e-05 s⁻¹ |  |  |  | 
7 | U54A C68G | 9.86e-05 ± 2.8e-06 s⁻¹ | 0.000106 ± 1.9e-05 s⁻¹ | 9.77e-05 ± 9.3e-06 s⁻¹ | 5.44e-05 ± 1.6e-05 s⁻¹ | 8.95e-05 ± 2.1e-05 s⁻¹ | 8.94e-05 ± 1.3e-05 s⁻¹ | 31 ± 7.5 µM
8 | C16U U46A | 0.00336 ± 0.00057 s⁻¹ | 0.00176 ± 0.00024 s⁻¹ | 0.00249 ± 0.00038 s⁻¹ | 5.67e-05 ± 1.4e-05 s⁻¹ | 0.00012 ± 5.1e-05 s⁻¹ | 0.000641 ± 0.00012 s⁻¹ | 2760 ± 760 µM
9 | A53C U55C | 0.0014 ± 0.00029 s⁻¹ | 0.00148 ± 0.00029 s⁻¹ | 0.00116 ± 0.00017 s⁻¹ |  | 0.00015 ± 4e-05 s⁻¹ | 0.00052 ± 9.2e-05 s⁻¹ | 1150 ± 480 µM
10 | G38A C61A G66U U69C C70U | 4.44e-05 ± 6.1e-06 s⁻¹ |  |  |  |  |  | 
11 | G32C C58A | 0.000602 ± 8.9e-05 s⁻¹ | 0.000139 ± 1.7e-05 s⁻¹ | 0.000333 ± 4.8e-05 s⁻¹ |  |  | 4.35e-05 ± 8.2e-06 s⁻¹ | 8220 ± 1700 µM
12 | U47A C70A | 0.000263 ± 6.7e-05 s⁻¹ | 0.000186 ± 3.4e-05 s⁻¹ |  |  | 3.52e-05 ± 1.2e-05 s⁻¹ | 0.000122 ± 1.9e-05 s⁻¹ | 858 ± 410 µM
13 | A12U C50A | 0.000111 ± 2.6e-06 s⁻¹ | 6.47e-05 ± 1.4e-05 s⁻¹ | 9.58e-05 ± 1.2e-05 s⁻¹ |  |  | 3.27e-05 ± 1.3e-05 s⁻¹ | 1660 ± 130 µM
14 | U56G C71G | 0.000632 ± 0.00018 s⁻¹ | 0.000512 ± 0.0001 s⁻¹ | 0.000942 ± 0.00021 s⁻¹ | 6.71e-05 ± 1.8e-05 s⁻¹ | 0.00014 ± 2.1e-05 s⁻¹ | 0.000271 ± 4.6e-05 s⁻¹ | 
15 | C11U U55A | 0.00167 ± 0.0004 s⁻¹ | 0.000891 ± 0.0002 s⁻¹ | 0.0018 ± 0.00026 s⁻¹ | 6.97e-05 ± 1.2e-05 s⁻¹ | 0.000177 ± 3.7e-05 s⁻¹ | 0.000478 ± 9.1e-05 s⁻¹ | 1260 ± 470 µM
16 | U54A U69A | 0.00011 ± 2.2e-05 s⁻¹ | 0.000141 ± 2.3e-05 s⁻¹ | 8.28e-05 ± 1.5e-05 s⁻¹ |  | 0.000107 ± 1.5e-05 s⁻¹ | 0.000109 ± 1.9e-05 s⁻¹ | 
